Source: patent US20200339702A1 (ULTRAHUMAN THIRTEEN, published 2020)

T1: rhesus ERBB3 on transiently transfected HEK-293 cells (rhesus monkey (Macaca mulatta), UniProt P21860 20-1342 (human entry))
T1 construct: also called rhesus ERBB3+ HEK-293 cells
T1 chain: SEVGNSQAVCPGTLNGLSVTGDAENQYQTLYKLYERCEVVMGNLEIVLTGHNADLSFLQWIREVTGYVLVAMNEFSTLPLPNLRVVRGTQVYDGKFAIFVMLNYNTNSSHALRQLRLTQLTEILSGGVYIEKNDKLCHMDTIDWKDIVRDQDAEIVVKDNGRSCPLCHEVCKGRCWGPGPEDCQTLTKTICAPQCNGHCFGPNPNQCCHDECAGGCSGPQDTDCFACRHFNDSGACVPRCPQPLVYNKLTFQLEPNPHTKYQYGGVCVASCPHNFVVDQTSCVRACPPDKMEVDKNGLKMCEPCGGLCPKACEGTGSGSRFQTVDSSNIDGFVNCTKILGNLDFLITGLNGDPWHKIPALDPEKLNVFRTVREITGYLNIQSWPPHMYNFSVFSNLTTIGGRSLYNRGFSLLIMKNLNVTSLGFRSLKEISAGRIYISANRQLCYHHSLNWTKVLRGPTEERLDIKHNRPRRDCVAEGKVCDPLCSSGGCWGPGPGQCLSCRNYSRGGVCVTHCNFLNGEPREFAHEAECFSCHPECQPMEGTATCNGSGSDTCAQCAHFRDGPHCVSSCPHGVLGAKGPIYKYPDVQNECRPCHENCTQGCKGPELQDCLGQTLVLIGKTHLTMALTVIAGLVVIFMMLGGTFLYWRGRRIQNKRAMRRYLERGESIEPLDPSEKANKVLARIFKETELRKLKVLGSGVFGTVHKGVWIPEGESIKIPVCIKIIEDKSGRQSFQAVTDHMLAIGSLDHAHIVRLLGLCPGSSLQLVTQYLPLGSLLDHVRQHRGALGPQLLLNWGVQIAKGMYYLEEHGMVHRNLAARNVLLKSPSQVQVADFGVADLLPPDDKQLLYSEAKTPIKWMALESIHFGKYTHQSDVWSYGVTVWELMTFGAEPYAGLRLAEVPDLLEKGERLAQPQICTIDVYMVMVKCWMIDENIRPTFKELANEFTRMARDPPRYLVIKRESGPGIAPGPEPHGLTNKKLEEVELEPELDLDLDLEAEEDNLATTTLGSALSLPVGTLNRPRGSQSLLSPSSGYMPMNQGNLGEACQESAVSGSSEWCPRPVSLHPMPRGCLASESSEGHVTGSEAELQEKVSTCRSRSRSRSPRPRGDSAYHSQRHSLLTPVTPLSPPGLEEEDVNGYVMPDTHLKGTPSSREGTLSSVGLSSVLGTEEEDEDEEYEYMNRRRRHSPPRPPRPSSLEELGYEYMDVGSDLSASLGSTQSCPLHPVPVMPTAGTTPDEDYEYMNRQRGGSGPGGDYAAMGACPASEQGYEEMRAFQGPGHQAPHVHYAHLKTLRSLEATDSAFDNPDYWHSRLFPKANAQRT


Columns and labels:
[1] = molecular target: T2, human ERBB3 His tagged, monomeric (human, UniProt P21860 20-643, biotinylated in the Alphascreen assays (sites not given)); assay: SPR (Biacore), captured IgG, monomeric ERBB3-His analyte
T2 construct: Used unbiotinylated as Biacore analyte and biotinylated in Alphascreen; treated as one molecule; also called human ERBB3-His (Acrobiosystems); biotinylated monomeric human ERBB3
Procedure: (§1) Affinity (KD) of purified IgGs was determined via SPR with antigen in-solution on a Biacore® 3000 (GE). A mouse anti-human antibody (CH1 specific) was immobilized on a CM5 Sensor Chip to a level of 2000 RU in acetate buffer at pH 4.5 using amine coupling following the Wizard instructions for two channels. One channel was used for background signal correction. The standard running buffer HBS-EP pH 7.4 was used. Regeneration was performed with a single injection of 10 μl of 10 mM Glycine at pH 1.5 at […]. IgG samples were injected for 2 minutes at 50 nM at 30 μl/min followed by an off-rate of 60 seconds. The monomeric antigen (human ERBB3 His tagged or rhesus monkey ERBB3 His tag) was injected in two fold serial dilutions from 3 nM down to 0.2 nM, for 2 minutes at 30 μl/min followed by an off-rate of 300 seconds. The obtained sensorgrams were analysed using the Biacore® 3000 evaluation (BlAevaluation) software. The KD was calculated by simultaneous fitting of the association and dissociation phases to a 1:1 Langmuir binding model.
Biacore® analyses of binding affinity were performed for all IgGs to solution-phase, monomeric human and rhesus ERBB3 proteins.

[2] = molecular target: T1, rhesus ERBB3 on transiently transfected …; assay: flow cytometry, rhesus ERBB3-transfected HEK-293 cells, IgG1null titrated
Procedure: Purified IgGs were tested in FACs for binding to human and rhesus monkey ERBB3 expressed on transiently transfected HEK-293 cells and HEK-293 wild-type cells. The IgG samples were titrated in three-fold serial dilutions starting at 500 nM to 0.008 nM. Binding of IgGs was detected with a mouse anti-human IgG conjugated to FITC. Results were analyzed by examining the Mean Fluorescence Intensity (MFI) of 10000 cells per sample in the BL-1 channel detector of a flow cytometer (Attune™ NxT Acoustic Focusing Cytometer, Invitrogen/ThermoFisher Scientific).
Antibodies to ERBB3 were analysed for concentration-dependent binding at the cell surface via flow cytometry. HEK-293 cells were transiently transfected with either human or rhesus ERBB3 full-length cDNAs. Anti-ERBB3 IgGs and an isotype control were then all tested in IgG1null format, over a concentration range of 500-0.008 nM for binding to human (FIG. 5A) and rhesus (FIG. 5B) transfected cells.

[3] = molecular target: T2, human ERBB3 His tagged, monomeric; assay: SPR (Biacore)
Procedure: as §1

[4] = molecular target: T2, human ERBB3 His tagged, monomeric; assay: Alphascreen competition in solution, competitor h24C05 IgG1null, biotinylated human ERBB3-His
Procedure: The AlphaScreen assay (Perkin Elmer) was performed in a 25 μl final volume in 384-well white microtiter plates (Greiner). The reaction buffer contained 1×PBS pH 7.3 (Oxoid, Cat. nr. BR0014G) and 0.05% (v/v) Tween® 20 (Sigma, Cat. nr. P9416). Purified IgG samples were titrated in three fold serial dilutions starting at 100 nM final concentration and incubated with biotinylated human ERBB3-His (Acrobiosystems) at 1 nM final concentration for 20 minutes at room temperature. The parental IgG and the anti-human IgG1 Acceptor beads at were added and the mix was incubated for 1 hour at room temperature. Followed by addition of the Streptavidin Donor beads and incubation for 30 minutes at room temperature. The emission of light was measured in the EnVision multilabel plate reader (Perkin Elmer) and analysed using the EnVision manager software. Values were reported as Counts Per Second (CPS) and corrected for crosstalk.

Row | Binder | Kd [1] [pM] | koff [1] [s⁻¹] | kon [1] [M⁻¹ s⁻¹] | EC50 (read off the curve) [2] [pM] | fold loss of KD against clone MH5 [3] [fold] | IC50 (read off the curve) [4] [pM]
1 | 09D12 IgG1null (antibody, V domains shown, Human IgG1null and human Ckappa) VH: QVQLVESGGGLVKPGGSLRLSCAASGFTFSDYGMSWIRQAPGKGLEWVSTISDGGSYTYYADSVKGRFTISRDNAKNSLYLQMNSLRAEDTAVYYCAREYGDYDGFDYWGQGTLVTVSS VL: DIQMTQSPSSLSASVGDRVTITCRASQSISSYLNWYQQKPGKAPKLLIYAASSLDSGVPSRFSGSGSGTDFTLTISSLQPEDFATYYCLQYDSTPLTFGGGTKVEIK | 270 | 0.0035 | 1.3e+07 | ~400 |  | 
2 | TTP IgG1null (antibody, V domains shown, Designer clone; Human IgG1null and human Ckappa; also called Total Theoretically Possible clone) VH: QVQLVESGGGLVKPGGSLRLSCAASGFTFSDYGMSWIRQAPGKGLEWVSTISDSGSTIYYADSVKGRFTISRDNAKNSLYLQMNSLRAEDTAVYYCAREYGDYDGFDYWGQGTLVTVSS VL: DIQMTQSPSSLSASVGDRVTITCRASQSISSYLNWYQQKPGKAPKLLIYAASSLQSGVPSRFSGSGSGTDFTLTISSLQPEDFATYYCLQYDSTPLTFGGGTKVEIK | 1200 | 0.073 | 6.2e+07 | ~900 | ~2 | ~5000
